The values below come from patent US6379665B1, “Phospholipase D polypeptide and DNA sequences” (Onyx Pharmaceuticals, Inc., priority 1996, dated 2002).

Data set [1] in a line: substrate specificity and transphosphatidylation assay of hPLD1a. The data set is classed as biochemical. Here is the method: Samples of the reaction products were applied to a 1 ml HPLC column of Source 15S resin (Pharmacia Biotech Inc.) and washed with 10 ml of H2O and eluted with a 30 ml linear gradient of 0-1 M CH3COONH4 in water at a flow rate of 1 ml/min. 1 ml fractions were collected and their radioactivity determined by liquid scintillation counting. Compounds were identified by reference to authentic standards. For analysis of phospholipid products, the vescicles were of standard composition except that approximately 10-20×10^3 dpm of [^32P]PC, [^32P]PE or [^32P]PI (specific radioactivity 10,000 dpm/nmol) was substituted for the [^3H]PC. Incubations were exactly as described except that transphosphatidylation assay contained 2% v/v EtOH. The assays were terminated by addition of 232 l of 1:1 CHCl2, MeOH. After mixing and centrifugation, the lower phases were removed, dried under vacuum, and analyzed by TLC on oxalate-impregnated Whatman 60A silica gel plates in a solvent system of CHCl2, MeOH:acetic acid (13:3:1, v/v). […]
To assess hPLD1a's substrate specificity, the standard PLD assay was carried out using [^32P]PE and [^32P]PI following the method as describe in Brown, Cell 75: 1137-44 (1993). […] To determine whether hPLD1a was capable of transphosphatidylase activity, EtOH was added to the reaction mixture and the products analyzed by thin layer chromatography. […]

Data set [2] has as its system HL-60 cells. Briefly: RT-PCR quantification of hPLD1a and hPLD1b during dbcAMP-induced HL-60 cell differentiation. The data set is classed as cell-based, human. Particulars: 0.5 mM dbcAMP; for increase in level (printed as activity) on day 1: day 1, RT-PCR; for increase in level (printed as activity) on day 2: day 2, RT-PCR; for increase in level (printed as activity) on day 3: day 3, RT-PCR. The method, then:
To analyze changes in the levels of hPLD1 a and hPLD1b during HL-60 cell differentiation induced by dcbAMP, HL-60 cells maintained in RPMI-1640 medium supplemented with 10% fetal bovine serum, 100 units/ml penicillin and 100 µg/ml streptomycin in a humidified atmosphere containing 5% CO2, at 37 C. were grown in RPMI-1640 medium without fetal bovine serum for 24 hours. Differentiation was initiated by the addition of 0.5 mM dbcAMP. Levels of PLD1a and PLD1b were quantified by RT-PCR. Total RNA was isolated from the HL-60 cells at the exponential growth stage by the acid guanidine thiocyanate method following the protocol of Chomczynski, Anal. Biochem. 162: 156-62(1992). Two g of RNA was reverse transcribed by using random hexamer mixed primers. The number of amplification cycles were determined to individual primer sets in order to maintain exponential rate of product amplification. Amplified DNA fragments were subjected to electrophoresis on 1.5% agarose gel and visualized by ethidium bromide staining. The intensity of bands was quantified by a densitometer (Atto Densitograph, Tokyo, Japan). Primer A (Forward): nucleotides 1475 through 1491; primer B (reverse) nucleotides 2133 through 2113 of SEQ ID NO: 1. Amplification conditions used were 94 C. for 30 seconds, 60 C. for 1 minute, and 72 C. for 1 minute; 25-27 cycles.

Data set [3] is described as follows: standard headgroup release assay, fractions of hPLD1a baculovirus-infected Sf9 cells. It is filed as biochemical. Particulars: Sf9 cells infected 48 hours. The method, then: To determine the activity encoded by recombinant hPLD1a, control and hPLD1a-encoding baculovirus-infected Sf9 cells were assessed using a standard headgroup release assay that measures the amount of tritiated headgroup (e.g. [^3H]choline) liberated by hydrolysis of the labeled substrate [^3H]PC. The assay procedure measures release of the choline headgroup from the radiolabeled PC and is based on a protocol previously described in Brown, Cell 75:1137-44 (1993). Using standard separation techniques, cytosolic and membrane fractions were prepared from uninfected Sf9 cells or Sf9 cells infected for 48 hours with the hPLD1 expressing baculovirus vector. Sf9 cells infected with native baculovirus vector or PLC-expressing baculovirus vector yielded modest PLD activity levels similar to untransfected cells.

B1: hPLD1a: human phospholipase D1a, approximately 1074 amino acid protein, SEQ ID NO:2 (protein, listed as Homo sapiens)
chain: MSLKNEPRVNTSALQKIAADMSNIIENLDTRELHFEGEEVDYDVSPSDPKIQEVYIPFSAIYNTQGFKEPNIQTYLSGCPIKAQVLEVERFTSTTRVPSINLYTIELTHGEFKWQVKRKFKHFQEFHRELLKYKAFIRIPIPTRRHTFRRQNVREEPREMPSLPRSSENMIREEQFLGRRKQLEDYLTKILKMPMYRNYHATTEFLDISQLSFIHDLGPKGIEGMIMKRSGGHRIPGLNCCGQGRACYRWSKRWLIVKDSFLLYMKPDSGAIAFVLLVDKEFKIKVGKKETETKYGIRIDNLSRTLILKCNSYRHARWWGGAIEEFIQKHGTNFLKDHRFGSYAAIQENALAKWYVNAKGYFEDVANAMEEANEEIFITDWWLSPEIFLKRPVVEGNRWRLDCILKRKAQQGVRIFIMLYKEVELALGINSEYTKRTLMRLHPNIKVMRHPDHVSSTVYLWAHHEKLVIIDQSVAFVGGIDLAYGRWDDNEHRLTDVGSVKRVTSGPSLGSLPPAAMESMESLRLKDKNEPVQNLPIQKSIDDVDSKLKGIGKPRKFSKFSLYKQLHRHHLHDADSISSIDSTSSYFNHYRSHHNLIHGLKPHFKLFHPSSESEQGLTRPHADTGSIRSLQTGVGELHGETRFWHGKDYCNFVFKDWVQLDKPFADFIDRYSTPRMPWHDIASAVHGKAARDVARHFIQRWNFTKIMKSKYRSLSYPFLLPKSQTTAHELRYQVPGSVHANVQLLRSAADWSAGIKYHEESIHAAYVHVIENSRHYIYIENQFFISCADDKVVFNKIGDAIAQRILKAHRENQKYRVYVVIPLLPGFEGDISTGGGNALQAIMHFNYRTMCRGENSILGQLKAELGNQWINYISFCGLRTHAELEGNLVTELIYVHSKLLIADDNTVIIGSANINDRSMLGKRDSEMAVIVQDTETVPSVMDGKEYQAGRFARGLRLQCFRVVLGYLDDPSEDIQDPVSDKFFKEVWVSTAARNATIYDKVFRCLPNDEVHNLIQLRDFINKPVLAKEDPIRAEEELKKIRGFLVQFPFYFLSEESLLPSVGTKEAIVPMEVWT
For the molecule B1, the transphosphatidylase activity result in data set [1] (EtOH added, [^32P]PC, TLC) is “catalyzes the formation of [^32P]phosphatidylethanol”. For the same molecule, the “hydrolysis of PE or PI” value in data set [1] ([^32P]PE and [^32P]PI as substrates) is on record as “unable to hydrolyze PE or PI”. Besides, in data set [2], the “increase in level (printed as activity) on day 1” value was “approximately 3 fold”, the “increase in level (printed as activity) on day 2” value is “approximately 4 fold” and the “increase in level (printed as activity) on day 3” value was “less than 4 fold”. Further, in data set [3] (cytosolic fraction), the “cytosolic PLD activity above control” value came to 32 fold. In addition, the “membrane-associated PLD activity above control” value in data set [3] (membrane fraction) is reported as 15 fold.

B2: PLD1: purified recombinant mammalian PLD1 (SEQ ID NOS:2 or 5), a/b form not specified (protein, UniProt Q13393 1-1074, looked up)
Phospholipase D1: B1 chain
For the molecule B2, the “increase over the 3 day differentiation period” value in data set [2] (3 days, RT-PCR) was 3-4 fold.

B3: hPLD1b: human phospholipase D1b splice variant, approximately 1036 amino acid protein, SEQ ID NO:5 (protein, listed as Homo sapiens)
chain: MSLKNEPRVNTSALQKIAADMSNIIENLDTRELHFEGEEVDYDVSPSDPKIQEVYIPFSAIYNTQGFKEPNIQTYLSGCPIKAQVLEVERFTSTTRVPSINLYTIELTHGEFKWQVKRKFKHFQEFHRELLKYKAFIRIPIPTRRHTFRRQNVREEPREMPSLPRSSENMIREEQFLGRRKQLEDYLTKILKMPMYRNYHATTEFLDISQLSFIHDLGPKGIEGMIMKRSGGHRIPGLNCCGQGRACYRWSKRWLIVKDSFLLYMKPDSGAIAFVLLVDKEFKIKVGKKETETKYGIRIDNLSRTLILKCNSYRHARWWGGAIEEFIQKHGTNFLKDHRFGSYAAIQENALAKWYVNAKGYFEDVANAMEEANEEIFITDWWLSPEIFLKRPVVEGNRWRLDCILKRKAQQGVRIFIMLYKEVELALGINSEYTKRTLMRLHPNIKVMRHPDHVSSTVYLWAHHEKLVIIDQSVAFVGGIDLAYGRWDDNEHRLTDVGSVKRVTSGPSLGSLPPAAMESMESLRLKDKNEPVQNLPIQKSIDDVDSKLKGIGKPRKFSKFSLYKQLHRHHLHDADSISSIDSTSNTGSIRSLQTGVGELHGETRFWHGKDYCNFVFKDWVQLDKPFADFIDRYSTPRMPWHDIASAVHGKAARDVARHFIQRWNFTKIMKSKYRSLSYPFLLPKSQTTAHELRYQVPGSVHANVQLLRSAADWSAGIKYHEESIHAAYVHVIENSRHYIYIENQFFISCADDKVVFNKIGDAIAQRILKAHRENQKYRVYVVIPLLPGFEGDISTGGGNALQAIMHFNYRTMCRGENSILGQLKAELGNQWINYISFCGLRTHAELEGNLVTELIYVHSKLLIADDNTVIIGSANINDRSMLGKRDSEMAVIVQDTETVPSVMDGKEYQAGRFARGLRLQCFRVVLGYLDDPSEDIQDPVSDKFFKEVWVSTAARNATIYDKVFRCLPNDEVHNLIQLRDFINKPVLAKEDPIRAEEELKKIRGFLVQFPFYFLSEESLLPSVGTKEAIVPMEVWT
For B3, in data set [2], the “increase in level (printed as activity) on day 1” value is on record as “less than 2 fold”, the “increase in level (printed as activity) on day 2” value is listed as “approximately 3 fold” and the “increase in level (printed as activity) on day 3” value is listed as “approximately 3.5 fold”.
